# Data taken from patent publication US10220090B2, “BCMA Antigen binding proteins” (Amgen Inc., priority 2012, dated 2019).
# Columns and labels:
# [1] = test system: various cell lines; assay: Cell viability of various cell lines exposed to free DM1; type: cell-based; details: control
# Experimental: The ADCs were tested for the ability to target and kill BCMA-expressing myeloma cells. The CellTiter-Glo® Luminescent Cell Viability Assay is a homogeneous method to determine the number of viable cells in culture based on quantitation of the ATP present, which signals the presence of metabolically active cells. The CellTiter-Glo® Assay is applicable to cytotoxicity assays (see http://www.promega.com/products/cell-health-assays/cell-viability-assays/celltiter_glo-luminescent-cell-viability-assay/for more information). The cell viability assay was used to assess the relative killing capacity of various ADCs on various multiple myeloma cell lines and B-cell lines. The protocol provided in the Cell Titer-Glo kit (Promega G7572) was followed. In short, 5×10^3 target cells in 90 ul RPMI 1640, 10% FBS were aliquoted into clear, flat bottom, white walled 96 well plates (Costar #3903). The ADCs were diluted into a 10× stock to create 500 nM maytansine drug equivalents. Each ADC was serially diluted in 2-fold dilutions in RPMI 1640, 10% FBS starting with 500 nM stock. […] Luminescence was read on an EnVision™ Multilabel reader (PerkinElmer) or Analyst HT plate reader (LJL Biosciences). The data was analyzed and graphed using GraphPad Prism™ to determine the relative efficacy of the ADCs on various cancer cell lines. […]
# [2] = molecular target: [6xHistidine-SUMO]-huBCMA (SEQ ID NO:350) and its carboxy terminal clipped forms (Homo sapiens, UniProt Q02223); assay: Size exclusion chromatography and LC/MS of antibody complexes with Sumo-huBCMA and clipped forms; type: binding; details: SEC and LC/MS; listed as 29C12
# Source text: To determine which forms of 6×His-SUMO-huBCMA were bound to the anti-huBCMA antibodies, the SEC fractions were isolated and analyzed. Carboxy-terminus fragments of the extracellular domain of human BCMA were generated as clipped forms from the rhuBCMA fusion protein (6×His::Sumo::huBCMA(aa 5-51)::GGS::G3::Avi) of SEQ ID NO:350, as shown in FIG. 45.
# A Superdex 200™ 10/30 cm SEC column (GE Healthcare Life Sciences) was used according to the manufacturer's recommendations and run in phosphate buffered saline (PBS). Incubations of antibody with excess levels of sumoBCMA were performed at room temperature for at least 30 minutes.
# (§1) A Superdex 200™ 10/30 cm SEC column (GE Healthcare Life Sciences) was used according to the manufacturer's recommended condision and run in phosphate buffered saline (PBS). Incubations of antibody with excess levels of sumoBCMA were performed at room temperature for at least 30 minutes.
# 5 ug of total proteins were reduced in 50 mM Tris/4 M guanidine/9 mM DTT, pH 8.0 at 55° C. for 15 min, and analyzed in Agilent LCTOF system using a Vydac C8 column, 2.1 mm ID×150 mm, […] particle size. […] TOF MS conditions included capillary voltage of 4000 V, drying gas flow at 10 L/min, dry gas temperature at 300° C., nebulizer gas flow at 40 L/min, and fragmentor voltage of 300 V. MS data was analyzed in Agilent MassHunter™ Qualitative Analysis program.
# [3] = molecular target: T1, Sumo (cleaved from SumoBCMA) (Saccharomyces cerevisiae, UniProt Q12306); assay: Size exclusion chromatography control with Sumo; type: binding; details: SEC control
# T1 construct: 6xHis (N)
# Experimental: as §1
# [4] = molecular target: T2, human BCMA (Homo sapiens, UniProt Q02223, N81S); assay: FACS binding on cells transiently transfected to express full length BCMA
# T2 construct: expressed in transfected cells
# T2 sequence (Q02223 1-184 N81S): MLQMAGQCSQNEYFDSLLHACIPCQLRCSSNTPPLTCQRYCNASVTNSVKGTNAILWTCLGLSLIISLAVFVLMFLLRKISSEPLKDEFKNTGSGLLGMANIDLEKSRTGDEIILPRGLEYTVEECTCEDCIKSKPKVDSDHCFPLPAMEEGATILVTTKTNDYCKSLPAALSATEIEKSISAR
# Experimental: (§2) An important criterion is exquisite selectivity for wild-type human BCMA expressed on the surface of cells. FACS binding on cells transiently transfected to express full length BCMA, TACI, or BAFF-R was performed using standard techniques. Approximately 40×10^6 of the transiently-transfected target cells were resuspended in a staining solution (2% goat serum, 1% rabbit serum, 0.02% azide in PBS) and aliquoted into round-bottom, 96-well plate (Corning Incorp., Acton, Mass.) as per the experiment design. The cells were incubated at 4 degrees celsius for 30 minutes to block non-specific sites. The antibodies were titrated into the staining solution. The cells were rinsed in a rinse solution (PBS+0.02% azide) by resuspending the cells in 200 ul/well. The cells were centrifuged at 1500 rpm at 4 degrees celsius for 7 minutes. The rinse solution was removed and the rinse step was repeated. The cells were resuspended in the appropriate antibody solution (see the matrix in TABLE 4) at 30 ul/well and incubated at 4 degrees celsius for 30 minutes. […] For the mouse IgG1 negative control and the two mouse antibodies (1.183 and 1.288), the secondary reagent was an anti-mouse IgG-PE conjugate (BD Pharmingen Cat. 550589). The cells/antibodies were rinsed as described above to remove excess/unbound antibody. […] Samples were read at 532 nm wavelength on FACS. […]
# [5] = molecular target: T3, TACI (Homo sapiens, UniProt O14836); assay: FACS binding on cells transiently transfected to express full length TACI
# T3 construct: expressed in transfected cells
# T3 sequence (O14836 1-293): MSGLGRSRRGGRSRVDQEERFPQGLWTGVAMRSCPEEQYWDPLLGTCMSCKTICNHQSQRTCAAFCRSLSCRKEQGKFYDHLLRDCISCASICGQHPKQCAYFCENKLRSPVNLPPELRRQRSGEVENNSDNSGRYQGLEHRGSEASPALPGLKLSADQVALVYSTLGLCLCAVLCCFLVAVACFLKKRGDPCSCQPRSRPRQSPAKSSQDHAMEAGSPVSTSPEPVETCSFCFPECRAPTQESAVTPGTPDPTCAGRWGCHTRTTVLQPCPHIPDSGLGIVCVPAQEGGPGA
# Experimental: as §2
# T1 sequence (Q12306 1-98 limits assumed): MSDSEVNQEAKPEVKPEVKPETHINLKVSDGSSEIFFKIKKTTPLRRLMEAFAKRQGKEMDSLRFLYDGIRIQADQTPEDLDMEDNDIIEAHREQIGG
# Sequence of [6xHistidine-SUMO]-huBCMA (SEQ ID NO:350) and its carboxy terminal clipped forms (Q02223 with tags, fused parts or gaps limits assumed): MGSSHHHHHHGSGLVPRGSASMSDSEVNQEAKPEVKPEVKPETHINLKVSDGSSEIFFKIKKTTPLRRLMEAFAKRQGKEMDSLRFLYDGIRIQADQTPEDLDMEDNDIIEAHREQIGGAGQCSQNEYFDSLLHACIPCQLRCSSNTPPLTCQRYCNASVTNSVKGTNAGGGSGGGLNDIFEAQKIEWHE
molecule,measurement,setting,value
COc1cc2cc(c1Cl)N(C)C(=O)C[C@H](OC(=O)[C@H](C)N(C)C(=O)CCS)[C@]1(C)O[C@H]1[C@H](C)[C@@H]1C[C@@](O)(NC(=O)O1)[C@H](OC)/C=C/C=C(\C)C2 [DM1],killing by free DM1,[1],killed by free DM1
"Ab-8: anti-huBCMA mAb of the second campaign, Vh SEQ ID NO:220, Vl SEQ ID NO:254 (antibody, V domains shown) VH: EVQLLESGGALVQPGGSLRLSCAASGFTFSSYAMNWVRQAPGKGLEWVSAISVGGDTYYADSVKGRFTISRDNSKNTLYLQMNSLRAEDTAVYYCAKDQVTMVRGVWYYYGLDVWGQGTTVTVSS VL: DIVMIQSPLSLPVTPGEPASISCRSSQSLLHSNGNNYLDWYLQKPGQSPHLLISLGSNRTSGVPDRFSGSGSGTDFTLKISRVEAEDVGVYYCMQALQPPRRFGQGTKLEIKR",binding to full-length and truncated fragments of human BCMA,[2],bound full-length and truncated forms of BCMA
same,binding to Sumo,[3],did not bind to Sumo
"Ab-6: anti-huBCMA mAb, Vh SEQ ID NO:216, Vl SEQ ID NO:250 (antibody, V domains shown) VH: QVQLVESGGGVVQPGRSLRLSCAASGFTFSSYGLHWVRQAPGKGLEWVALISYDGSNKYYADSVKGRFTISRDNSKNTLYLQMNSLRAEDTAVYYCWYSSSWTPLDYWGQGTLVTVSS VL: DIQMTQSPSSLSASVGDRVTITCRASQGIRNDLGWYQQKPGKAPKRLIYAASSLQSGVPSRFSGSGSGTEFTLTISSLQPEDFATYYCLQYYSYPLTFGGGTKVEIKR",BCMA (FACS binding),[4],+ (A sample was considered positive for binding if the MFI was two times the negative control value)
same,TACI (FACS binding),[5],+ (A sample was considered positive for binding if the MFI was two times the negative control value)
